Assay: soluble on expression in E. coli; label from the status in PepcDB or PDB records

Question: Which “soluble on expression in E. coli” value does the source give for “MNKFVRLAAIAGLLLAGASYATDTTYRIDQLPQLRQEPEHATVSERVTSRFTRSHYRQFALDDQFSAKIFDRYLNMLDYSHNVLLASDVAQFADKKYSLDKELKSGQLDTPFALFNLAQKRRFERYQYALSVLDRPMVFTGNDTIDIDRAKAPWPSSEAELNALWDAKVKYDQLNLKLAGKTDKEIKETLTKRYQSAIKRLTQSNSEDVFQLIMNAFAREIDPHTNYLSPRNTEQFNTEMSLSLEGIGAVLQMDDDYTLINSMVPGGPAAKSKTIAVGDRVIGVGQAGKPMVDVIGWRLDDVVALIKGPKGSKVRLEILPAGKGTKPRTVTLTRERIRLEDRAVKMSVKTIGKERVGVLDIPGFYVGLTEDVKVQLQKLEKQNVSSIIIDLRSNGGGALTEAVSLSGLFIPSGPVVQVRDNNGKVREDSDTDGVVYYKGPLVVLVDRYSASASEIFAAAMQDYGRALIVGEPTFGKGTVQQYRSLNRIYDQMLRPEWPALGSLQYTIQKFYRVDGGSTQRKGVTPDIVMPTGVDPAETGENFEDNALPWDRINAASYTKTGDLKPWEPELLKNHAERIAANPEFQYIQKDIERYKALKDKRNIVSLNYAQREKENRDDDMTRLTRLNERFIREGKKPLKSLDDLPKDYQEPDPYLDETVNIALDLAHKEKAQPQIASRPVAAATAGATVK” here?
Answer: The value was “not soluble”.

Question: With “MGSDKIHHHHHHMKTFHLTTQSRDEMVDITSQIETWIRETGVTNGVAIVSSLHTTAGITVNENADPDVKRDMIMRLDEVYPWHHENDRHMEGNTAAHLKTSTVGHAQTLIISEGRLVLGTWQGVYFCEFDGPRTNRKFVVKLLTD” as the sequence, how does the “soluble on expression in E. coli” value read?
Answer: Its value is “soluble”.

Question: For “MSLSIPERKEFTKLYDVYDEITSKYYKDTNSTTMIDGAISGMVNSLDDPYSTFMSKKESSEFNDTISASFEGIGAEIQEKDGAIVIVSPIKNSPAEKAGLRPQDIITQVDGKSVKGDTATEATQKIRGEKGTKVTLTIQRSNEDKPFDVTITRDEIPIETVYKEMGSDKIAHVTISTFSETTYDELEKALKSLEKDGMKGLVLDLRGNPGGLLDQAVSISSLFVPDGKIVVQEQDKDGDKSAIKADSSSHGDYKVKVPTTMLIDGGSASASEILAAAAKESGGIKLVGTKSFGKGTVQTATTLSDDSTLKLTVAKWLTPNSEWIHEKGITPDVVVNMPDYATMTIPSSTKVYKNGDFGDDVKTIETLLKALDYNVGKVDGLYDTDTEYAVQRFQTANKLDVTGIMTGVTTDKLVELTQKHLKETDPQLQKAKALVKEGHHHHHH”, which “soluble on expression in E. coli” value is on record?
Answer: The value was “soluble”.

Question: Which “soluble on expression in E. coli” value does the source give for “MIMALSSFGKILTVLDLFSVHRPIINVDIICEELALSKPTGYRYLKELVSSEILQRISGTSGDYTLGPKIAVMDYISRTTDPIVQMSSPFMRDIAERTELCCLLTHLNRDYCIDVHHEVFRNADLLSYGRGCPRPVYMGSSPKVIMAHLPKRQIQDYYQRFSRQLAEVDFAHDEESFLIRMKKIKKDGYYISHGELNPDVTGLSVPIKFSHTKESPMALTLVASKNRFEFINIDKLIEILQANVIHIEQKSLALIQIEKSLH” here?
Answer: The value was “not soluble”.

Question: For “MNYEGKTKIVKVTGDYALLEFKDDITAGDGLKHDVLTGKGSICAETTAILMKYLSEKGIKTHLVEYIPPRTLKVIPLKMFPLEVVVRLKKAGSFVRRYGGAEGEDLPVPLVEFFIKDDERHDPMVCVDHLEILGIATKKQAEKMKEAAVKITLALKEFFERANFELWDIKYEFGLDKDGNVVLGDEISPDTFRLRKKGEIFDKDVYRRDLGDPLKKYREVLELCRSLNSQ”, which “soluble on expression in E. coli” value is on record?
Answer: Its value is “soluble”.

Question: Which “soluble on expression in E. coli” value does the source give for “MGSDKIHHHHHHMSLLVRAAALTNYCEVARAGGLDPLRMMFDAGISPSVLREPDLMIQVDRFGRLLQTSATLSGNESFGLSMAESRLLSNLGPVGMLIRDQATLRDALGMLMRYQSILNGAKSLAVDECGGRVIIREVLIAGSAHQPTRQRVELALGVMVRLIRQLIKPDWQPQRVCFEHPAPRDLSTHQRFFGPNVAFNCDFNGIVCAKSDLDARNPWADPAMARYAQRLIDESAAARQTTMLEDVRRTILLLLPGGRCSVEQVAENLGVVCRTVQRRLAEQGQSFSSVVNDIRVELAMRHVVESDRPFTEVATLLGFSAPSGFSRWYQTQFGCSPKESRAASAAVGERVTETPSPARSSPTVRPLSRG” here?
Answer: The value was “not soluble”.

Question: For “GSHMASSEDEKLSFEAVRNIHKLMDDDANGDVDVEESDEFLREDLNYHDPTVKHSTFHGEDKLISVEDLWKAWKSSEVYNWTVDEVVQWLITYVELPQYEETFRKLQLSGHAMPRLAVTNTTMTGTVLKMTDRSHRQKLQLKALDTVLFG”, which “soluble on expression in E. coli” value is on record?
Answer: The value was “soluble”.

Question: Which “soluble on expression in E. coli” value does the source give for “MNDQEFFTVHHALTINVEPLAEHFTLPSHEIFEAEIPAPFVVASEFSQLEQLSDSARMELKNSDFKSVLQLLEAQNAKLNLLLTFMLSQQDDPQSRSATTRFGASQLTYLAKSPLQIGQKVRVKLFLEYPAAAIYCYASVMQCQQEPEHTLVTLKYDLLRDVDQDLLIKAALYQQQRLLRQRSLDREKPQA” here?
Answer: Its value is “soluble”.

Question: With “MGHHHHHHSHMKANLSLLRRPGEKTYTQRCRLFVGNLPADITEDEFKRLFAKYGEPGEVFINKGKGFGFIKLESRALAEIAKAELDDTPMRGRQLRVRFATHAAALSVRNLSPYVSNELLEEAFSQFGPIERAVVIVDDRGRSTGKGIVEFASKPAARKAFERCSEGVFLLTTTPRPVIVEPLEQLDDEDGLPEKLAQKNPMYQKE” as the sequence, how does the “soluble on expression in E. coli” value read?
Answer: The value was “soluble”.

Question: With “MGSDKIHHHHHHMDIKQLRYFVEVARREHISDAALELNIAQSAISRQITQLEKELGVTLFKRSGRNIILTVEGRQLLSQATQILELMDKTIHSFQQHVSHNQQTIYIGYEESDASQMILPLIQTFEQQSNSTMIPQLTKHDKLLDQILSNQLDLAITEFTPVLERETHLRVMPLFEENYYMYVPKSHPLAMTVHPPLSQFTNQSLYCLEPMTSSIKSKLIEKTKAQVRMISDMKLAQHILSHNKGFIISSQNSLLYDHVNWTKIPLNHTELKRMLCVVMRKDNKKNDINIAWNLICTLLNKSTIY” as the sequence, how does the “soluble on expression in E. coli” value read?
Answer: Its value is “not soluble”.

Question: For “KTIYLQSPYFIPDASLLEAIKIAALSGVDVRVMIPNKPDHAFVYRATTNYAGELMETGAKIFIYDNGFIHAKTLVVDGEIASVGTANMDFRSFRLNFEVNAFIYEKKMVQKLEDAFLEDILKSYQLTPELYAKR”, which “soluble on expression in E. coli” value is on record?
Answer: The value was “not soluble”.

Question: For “MSLSYRAHGLPVLENLLEQDFSASGPNQKWAGDITYLRTDEGWLYLAVVIDLWSRAVIGWSMSPRMTAQLACDALQMALWRRRRPESVIVHTDRGGQYCSGDYQALLKRHNLRGSMSAKGYCYDNACVESFFHSLKVECIHGERFSSREIMRATVFNYIECDYNRWRRHSACGGLSPEQFENHNLAEGHHHHHH”, which “soluble on expression in E. coli” value is on record?
Answer: Its value is “not soluble”.

Question: Which “soluble on expression in E. coli” value does the source give for “SVKRKSSEGQEQDGGRGIPLPIQTFLWRQTSAFLRPKLGKQYEASCVSFERVLVENKLHGLSPALSEAIQSISRWELVQAALPHVLHCTATLLSNRNKLGHQDKLGVAETKLLHTLHWMLLEAPQDCNNERFGGTDRGSSWGGSSSAFIHQVENQGSPGQPCQSSSNDEEENNRRKIFQNSMATAELFVFLFAPLVHRIKESDLTFRLASGLVIWQPMWEHRQPGVSGFTALVKPIRNIITAKRSSPINSQSRTCESPNQDARHLEGLQVVRETFQSDSISPKATISGCHRGNSFDGSLSSQTSQERGPSHSRSTFHFPP” here?
Answer: Its value is “soluble”.

Question: Which “soluble on expression in E. coli” value does the source give for “RDTCVTLLLDNSGSMRGRPISIAAICADVLARTLERCQVKVEILGFTTRAWKGGQSREKWLAAGRPQQPGRLNDLRHIVYKGADAPWRRARENLGLMMKEGLLKENIDGEALEWAHRRLSSRAETRKILMVISDGAPVDDSTLSVNPASYLEKHLRDVIAMVERKRQVELIAIGIGHDVTRYYARAVTITDVEQLAGAMTEQLASLFDADPKKRIGKRRVA” here?
Answer: Its value is “not soluble”.

Question: With “PRLTRRLTGFLPQEIKSIDTMIPLLSRALWNKHQVKKFNKAEDFQDRFIDHVETTLARSLYNCDDMVAYEAASMSIRDNLVIDWNKTQQKFTTRDPKRVYYLSLEFLMGRALDNALINMKIEDPEDPAASKGKPREMIKGALDELGFKLEDVLDQEPDAGLGNGGLGRLAACFVDSMATEGIPAWGYGLRYEYGIFAQKIIDGYQVETPDYWLNSGNPWEIERNEVQIPVTFYGYVDRPEGGKTTLSASQWIGGERVLAVAYDFPVPGFKTSNVNNLRLWQARPTTEFDLNKFNNGDYKNSVAQQQRAESITAVLYPNDNFAQGKELRLKQQYFWCAASLHDILRRFKKSKRPWTEFPDQVAIQLNDTHPTLAIVELQRVLVDLEKLDWHEAWDIVTKTFAYTNHTVMQEALEKWPRRLFGHLLPRHLEIIYDINWFFLEDVAKKFPKDVDLLSRISIIEENSPERQIRMAFLAIVGSHKVNGVVELHSELIKTTIFKDFIKFYGPSKFVNVTNGITPRRWLKQANPSLAKLISETLNDPTEEYLLDMAKLTQLEKYVEDKEFLKKWNQVKLNNKIRLVDLIKKENDGVDIINREYLDDTLFDMQVKRIHEYKRQQLNVFGIIYRYLAMKNMLKNGASIEEVARKYPRKVSIFGGKSAPGYYMAKLIIKLINCVADIVNNDESIEHLLKVVFVADYNVSKAEIIIPASDLSEHISTAGTEASGTSNMKFVMNGGLIIGTVDGANVEITREIGEDNVFLFGNLSENVEELRYNHQYHPQDLPSSLDSVLSYIESGQFSPENPNEFKPLVDSIKYHGDYYLVSDDFESYLATHELVDQEFHNQRSEWLKKSVLSLANVGFFSSDRCIEEYSDTIWNVEPVT” as the sequence, how does the “soluble on expression in E. coli” value read?
Answer: The value was “soluble”.

Question: With “MSEWASEDINAPSLLTGNPALQPQTGGILNIPANHQRIFTLFFTCRSQTNGDVVDQYAVEDRQQRLESRLLALKPSAQRNKQMCGECLGGVILTALFDPRSQAM” as the sequence, how does the “soluble on expression in E. coli” value read?
Answer: Its value is “not soluble”.

Question: For “MIDALLQEKITTRLIDTAPTIPVGVSNRHVHLSQQDVEALFGVGYQLTPFKPLRQPGQFAAEECVTVVGPKGSLTHVRVLGPVRPTSQLEISRADCFTLGIKAPVRESGQLENAGDALLVGPKGHVELHSQVICAWRHIHMSPQDARLLNVSNGQKVSVRSHGERQLTFDEVVVRVRNDFALELHIDTEEANAAGLKNGAQVTLIR”, which “soluble on expression in E. coli” value is on record?
Answer: Its value is “not soluble”.

Question: Which “soluble on expression in E. coli” value does the source give for “MSLAEIGVDAAFIDLLVETFYGRVLEHQTLGPVFDARLAGRWPEHMARMKQFWTAIAFKNGSYGGKPVQAHLGVQGMSAELFPQWLALFSVTLDDIAPSRKAHDWFMETAERIARSLTLSLFYNPAMDDPAVKREGHHHHHH” here?
Answer: Its value is “not soluble”.

Question: With “MVSEMLSEAGHSVSYLKGGMKAWSEHLEPVKVGDLKDGGEMYQFVRIGKGCLSYMVISNGEAAIIDATRMVNFFIDFAKGKGATITHVFDTHLHADHISGGRVIAEKTKATYWLPPKDAEEVEFDYQPLEEGNDIIIGNTTIKIQPIYSPGHTIGSTSFIVDDQYLLSGDILFIDSIGRPDLAGMAEDWVGDLRKTLYSRYKALSKDLIVLPAHFMIIDELNENGSVGKQLSTLFSENHGLNIADETEFRHLVTDHLPPQPNAYQEIRETNMGKISPDEEKQREMEIGPNRCAIRLEHHHHHH” as the sequence, how does the “soluble on expression in E. coli” value read?
Answer: The value was “not soluble”.

Question: With “MNDDKDVVIDQIYYISTDPSATTYPTTFSVSLVDNSVAGRPFFYVVGKSTMRVDRNTTLRVEEDSKLVEKYNETYGKKYLPFPEGTYSFSTNEVTINQGDNFSSDTIFISFSNWDKLSKIDKYLLPVSLKAVDDKGAVSMDRNLIYFIADFSTTNTGYNKPAAWKPLDRTDWDVSFSYAYGYDEAQFGGRLAVDGDVSTTWFTWGVVSAGECWWATTLPAPTHLTGFSLTRQTTFGSSYNVREAKVKVKKEGDTEWTEAGLFRFGSFKGNDPQYAVFIPAVENVKEFRIDIVSPADFTGFAELDLYQLEHHHHHH” as the sequence, how does the “soluble on expression in E. coli” value read?
Answer: Its value is “not soluble”.

Question: With “MQRNVMSEIVYGDKQLQILIAAEKLIAEQGFQGLSMHKVAKAANMATGTIYRYFRDKDHLLIEVRLHVSQKIAEAVQANLRDDMSLQERFRTMWLNIWTLAGSCRDIISNRVQYESLPTTTCCNVRELEQKMFAKVELLFDQGKQQGIFKPLDNHLLSALSFETTVTLARQYALGFYQLDDSTLDAMIQASWDAITQH” as the sequence, how does the “soluble on expression in E. coli” value read?
Answer: Its value is “not soluble”.

Question: With “GSALRELKVCLLGDTGVGKSSIMWRFVEDSFDPNINPTIGASFMTKTVQYQNELHKFLIWDTAGLERFRALAPMYYRGSAAAIIVYDITKEETFSTLKNWVRELRQHGPPSIVVAIAGNKCDLTDVREVMERDAKDYADSIHAIFVETSAKNAININELFIEISRRIPST” as the sequence, how does the “soluble on expression in E. coli” value read?
Answer: The value was “soluble”.

— the DeepSol protein solubility set
